Test results as given in article PMC6325239 (Nature Communications, 2019).

Target: T1, Munc13-1 MUN domain (residues 933–1407, EF, 1453–1531) (rat, UniProt Q62768 933-1407; Q62768 1453-1531)
T1 construct: Munc13-1, rat, residues 933-1407; linker that replaces residues 1408-1452; Munc13-1, rat, residues 1453-1531; Used in native PAGE, crystallization and, as far as told, fluorescence anisotropy; also called the MUN domain; source: E. coli BL21 DE3, pGEX-KG, purified (glutathione Sepharose, thrombin, SEC, ion exchange)
Test: crystal structure; MUN crystals (20% PEG 3350, 0.1 M MES pH 5.8–6.3, 0.2 M Mg(NO3)2, 4 °C) soaked with the LR peptide at 1:4 (MUN:peptide); 2.8 Å
Conditions: both partners purified

B1: Syb2 linker region peptide (residues 75–93 of Syb2) (peptide)
peptide: SQFETSAAKLKRKYWWKNL
notes: synaptobrevin-2 (Syb2), residues 75-93; also called LR; Syb2 peptide; source: synthetic peptide (Scilight Biotechnology, Beijing)
  binding result: binds
